Results published in paper PMC2096194 (Nature structural & molecular biology, 2007).

T1: Full-length human RAD51 (human, UniProt Q06609 1-339)
T1 sequence: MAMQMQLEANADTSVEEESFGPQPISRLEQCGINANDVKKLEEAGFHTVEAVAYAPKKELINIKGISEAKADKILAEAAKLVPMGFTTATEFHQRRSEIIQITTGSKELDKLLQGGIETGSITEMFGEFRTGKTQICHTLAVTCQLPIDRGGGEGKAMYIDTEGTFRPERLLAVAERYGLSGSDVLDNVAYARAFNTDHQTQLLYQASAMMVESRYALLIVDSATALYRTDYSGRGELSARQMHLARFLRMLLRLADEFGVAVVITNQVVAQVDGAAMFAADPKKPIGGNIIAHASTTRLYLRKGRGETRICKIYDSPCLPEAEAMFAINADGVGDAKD

B1: BRC4 peptide (human BRCA2 residues 1,514-1,548), biotinylated (peptide)
peptide: EKIKEPTLLGFHTASGKKVKIAKESLDKVKNLFDE
modifications: biotin on the N-terminus
B2: Lys80 RAD51 (residues 80-339) (domain or fragment)
chain: KLVPMGFTTATEFHQRRSEIIQITTGSKELDKLLQGGIETGSITEMFGEFRTGKTQICHTLAVTCQLPIDRGGGEGKAMYIDTEGTFRPERLLAVAERYGLSGSDVLDNVAYARAFNTDHQTQLLYQASAMMVESRYALLIVDSATALYRTDYSGRGELSARQMHLARFLRMLLRLADEFGVAVVITNQVVAQVDGAAMFAADPKKPIGGNIIAHASTTRLYLRKGRGETRICKIYDSPCLPEAEAMFAINADGVGDAKD

What was measured:
[1] = target: B2; test: pull-down
[2] = target: T1, Full-length human RAD51; test: cross-linking
[3] = target: the molecule itself; test: SEC

| Binder | binding result [1] | binding result [2] | binding result [3] |
| --- | --- | --- | --- |
| B1 | binds | binds | – |
| B2 | – | – | binds |
